Key:
Experiment in all cases: cell-based or functional assay
[1] = molecular target: HIV-1 Env of isolate 92RW020 (clade A) (HIV-1)
[2] = molecular target: HIV-1 Env of isolate 93IN905 (clade C) (HIV-1)
[3] = molecular target: HIV-1 Env of isolate APV17 (clade B) (HIV-1)
[4] = molecular target: HIV-1 Env of isolate JRCSF (clade B) (HIV-1) (UniProt P20871)
[5] = molecular target: HIV-1 Env of isolate MGRM-C-027 (clade C) (HIV-1)
[6] = molecular target: HIV-1 APV6 Env (clade B pseudovirus) (HIV-1)
[7] = molecular target: HIV-1 CMU02 Env (clade AE pseudovirus) (HIV-1)
[8] = molecular target: HIV-1 MGRM-A-010 Env (clade A pseudovirus) (HIV-1)
[9] = molecular target: HIV-1 MGRM-C-028 Env (clade C pseudovirus) (HIV-1)
[10] = molecular target: HIV-1 Env of isolate QH0692.42 (subtype B) (HIV-1)
[11] = molecular target: HIV-1 Env of isolate SF162 (subtype B) (HIV-1) (UniProt P19550)
[12] = molecular target: HIV-1 envelope glycoprotein (Env) of isolate MGRM-Chronic-B-003, on pseudovirus (HIV-1)
[13] = molecular target: HIV-1 envelope glycoprotein (Env) of isolate MGRM-Chronic-B-020, on pseudovirus (HIV-1)
[14] = molecular target: HIV-1 Env of isolate AC10 (HIV-1)
[15] = molecular target: HIV-1 Env of isolate Du172 (HIV-1)
[16] = molecular target: HIV-1 Env of isolate TR0.11 (HIV-1)
[17] = molecular target: HIV-1 Env of isolate 92TH021 (pseudovirus) (HIV-1)
[18] = molecular target: HIV-1 Env of isolate 92UG024 (subtype D), on pseudovirus (HIV-1)
[19] = molecular target: HIV-1 Env of isolate 92UG046 (subtype D), on pseudovirus (HIV-1)
[20] = molecular target: HIV-1 Env of isolate 92WR021 (pseudovirus) (HIV-1)
[21] = molecular target: HIV-1 Env of isolate 94 KE 105 (pseudovirus) (HIV-1)
[22] = molecular target: HIV-1 Env of isolate 94UG103 (pseudovirus) (HIV-1)
[23] = molecular target: HIV-1 Env of isolate MG RM-A-008 (pseudovirus) (HIV-1)
[24] = molecular target: HIV-1 Env of isolate MGRM-AE-002 (pseudovirus) (HIV-1)
[25] = molecular target: HIV-1 Env of isolate MGRM-AE-003 (pseudovirus) (HIV-1)
[26] = molecular target: HIV-1 Env of isolate MGRM-AE-004 (pseudovirus) (HIV-1)
[27] = molecular target: HIV-1 Env of isolate MGRM-AE-006 (pseudovirus) (HIV-1)
[28] = molecular target: HIV-1 Env of isolate MGRM-D-003 (subtype D), on pseudovirus (HIV-1)
[29] = molecular target: HIV-1 Env of isolate MGRM-D-005 (subtype D), on pseudovirus (HIV-1)

1443_C16 (PG16) (TCN-116) (antibody), sequence (VH): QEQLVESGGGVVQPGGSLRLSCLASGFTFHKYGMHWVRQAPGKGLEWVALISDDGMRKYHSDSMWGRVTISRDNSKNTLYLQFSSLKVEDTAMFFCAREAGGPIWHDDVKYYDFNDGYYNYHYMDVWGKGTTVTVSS
1443_C16 (PG16) (TCN-116) (antibody), sequence (VL): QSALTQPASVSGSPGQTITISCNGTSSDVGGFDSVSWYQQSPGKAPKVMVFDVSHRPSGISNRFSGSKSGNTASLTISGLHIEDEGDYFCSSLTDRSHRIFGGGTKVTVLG

## 5147_N06 (PGT-130) (antibody)
[1]
  neutralization IC50: 0.014 µg/mL
  neutralization IC80: 0.508 µg/mL
  neutralization IC90: 3.68 µg/mL
  neutralization IC95: > 10 µg/mL
[2]
  neutralization IC50: 0.0182 µg/mL
  neutralization IC80: 0.272 µg/mL
  neutralization IC90: 1.31 µg/mL
  neutralization IC95: 5.48 µg/mL
[3]
  neutralization IC50: > 10 µg/mL
  neutralization IC80: > 10 µg/mL
  neutralization IC90: > 10 µg/mL
  neutralization IC95: > 10 µg/mL
[4]
  neutralization IC50: 0.0089 µg/mL
  neutralization IC80: 0.0317 µg/mL
  neutralization IC90: 0.0669 µg/mL
  neutralization IC95: 0.134 µg/mL
[5]
  neutralization IC50: 0.0052 µg/mL
  neutralization IC80: 0.0318 µg/mL
  neutralization IC90: 0.106 µg/mL
  neutralization IC95: 0.464 µg/mL

## 4877_D15 (PGT-122) (antibody)
[6]
  Neutralization by PGT-122, IC50: 0.0851 µg/mL
  Neutralization by PGT-122, IC80: 0.351 µg/mL
  Neutralization by PGT-122, IC90: 0.779 µg/mL
  Neutralization by PGT-122, IC95: 1.55 µg/mL
[7]
  Neutralization by PGT-122, IC50: > 10 µg/mL
  Neutralization by PGT-122, IC80: > 10 µg/mL
  Neutralization by PGT-122, IC90: > 10 µg/mL
  Neutralization by PGT-122, IC95: > 10 µg/mL
[8]
  Neutralization by PGT-122, IC50: 1.68 µg/mL
  Neutralization by PGT-122, IC80: > 10 µg/mL
  Neutralization by PGT-122, IC90: > 10 µg/mL
  Neutralization by PGT-122, IC95: > 10 µg/mL
[9]
  Neutralization by PGT-122, IC50: 2.06 µg/mL
  Neutralization by PGT-122, IC80: > 10 µg/mL
  Neutralization by PGT-122, IC90: > 10 µg/mL
  Neutralization by PGT-122, IC95: > 10 µg/mL

## PGV04 (antibody)
[10]
  IC50 (µg/mL), pseudovirus neutralization: 1.9 µg/mL
[11]
  IC50 (µg/mL), pseudovirus neutralization: 0.0028 µg/mL
[12]
  IC50, pseudovirus neutralization: 0.258 µg/mL
[13]
  IC50, pseudovirus neutralization: 1.26 µg/mL

## 1443_C16 (PG16) (TCN-116) (antibody)
[14]
  IC50, pseudovirus neutralization (TZM-bl): < 0.01 µg/mL
[15]
  IC50, pseudovirus neutralization (TZM-bl): < 0.01 µg/mL
[16]
  IC50, pseudovirus neutralization (TZM-bl): 3.61 µg/mL

## VRC01 (antibody)
[17]
  IC50 (µg/mL), pseudovirus neutralization: 0.616 µg/mL
[18]
  IC50, pseudovirus neutralization: 0.576 µg/mL
[19]
  IC50, pseudovirus neutralization: 12.7 µg/mL
[20]
  IC50 (µg/mL), pseudovirus neutralization: 0.066 µg/mL
[21]
  IC50 (µg/mL), pseudovirus neutralization: 0.499 µg/mL
[22]
  IC50 (µg/mL), pseudovirus neutralization: 0.285 µg/mL
[23]
  IC50 (µg/mL), pseudovirus neutralization: 0.303 µg/mL
[24]
  IC50 (µg/mL), pseudovirus neutralization: 0.217 µg/mL
[25]
  IC50 (µg/mL), pseudovirus neutralization: 0.685 µg/mL
[26]
  IC50 (µg/mL), pseudovirus neutralization: 0.187 µg/mL
[27]
  IC50 (µg/mL), pseudovirus neutralization: 4.65 µg/mL
[28]
  IC50, pseudovirus neutralization: 2.06 µg/mL
[29]
  IC50, pseudovirus neutralization: > 50 µg/mL
